{"source": "paper PMC12980445", "tested_on": "MRA_0776 (Mycobacterium tuberculosis H37Ra)", "assay": "BLI", "settings": "[…] (pH not stated); BLI: PBST, 0.02% Tween-20, 30 C", "data": [{"substance": "dosR promoter (SN441-BIO)", "values": [{"measurement": "Kd", "value": 2880, "unit": "nM"}]}]}
